pKd: −log10 of the molar value.
What was measured:
[1] = target: MBP:RGA5_HMAm1m2 (rice (Oryza sativa)) (UniProt F7J0N2); test: SPR; […] (single-cycle kinetics, […]; 25 °C; 20 mM Tris pH 8, 150 mM NaCl, 0.5 mM DTT; […]
[2] = target: the engineered RGA5_HMAs; test: as above
[3] = target: MBP:RGA5_HMA (wild-type HMA domain of RGA5 fused to maltose-binding protein) (rice (Oryza sativa)) (UniProt F7J0N2); test: SPR; single-cycle kinetic titration, Biacore T200, 25 °C; […]; 20 mM Tris pH 8, 150 mM NaCl, 0.5 mM DTT, 0.05% P20; steady-state model

Row | Substance | pKd [1] | also measured
1 | 6×His-tagged AVR1-CO39 (natural protein) | 5.20 | –
2 | 6×His-tagged AVR-Pia (natural protein) | 5.23 | –
3 | 6×His-tagged AVR-PikD (from UniProt C4B8B8 22-113) (natural protein) | – | pKd [2]: 8.80 to 9.30
4 | AVR-PikD (dSP-AVR-PikD, His-tagged) (natural protein) | – | pKd [3]: 5.08
